Test results taken from article doi:10.1101/2024.09.17.612794 (bioRxiv, 2024).

T1: full-length Transportin-1 (Trn1), wild type (human, UniProt Q92973 1-898)
T1 sequence (looked up): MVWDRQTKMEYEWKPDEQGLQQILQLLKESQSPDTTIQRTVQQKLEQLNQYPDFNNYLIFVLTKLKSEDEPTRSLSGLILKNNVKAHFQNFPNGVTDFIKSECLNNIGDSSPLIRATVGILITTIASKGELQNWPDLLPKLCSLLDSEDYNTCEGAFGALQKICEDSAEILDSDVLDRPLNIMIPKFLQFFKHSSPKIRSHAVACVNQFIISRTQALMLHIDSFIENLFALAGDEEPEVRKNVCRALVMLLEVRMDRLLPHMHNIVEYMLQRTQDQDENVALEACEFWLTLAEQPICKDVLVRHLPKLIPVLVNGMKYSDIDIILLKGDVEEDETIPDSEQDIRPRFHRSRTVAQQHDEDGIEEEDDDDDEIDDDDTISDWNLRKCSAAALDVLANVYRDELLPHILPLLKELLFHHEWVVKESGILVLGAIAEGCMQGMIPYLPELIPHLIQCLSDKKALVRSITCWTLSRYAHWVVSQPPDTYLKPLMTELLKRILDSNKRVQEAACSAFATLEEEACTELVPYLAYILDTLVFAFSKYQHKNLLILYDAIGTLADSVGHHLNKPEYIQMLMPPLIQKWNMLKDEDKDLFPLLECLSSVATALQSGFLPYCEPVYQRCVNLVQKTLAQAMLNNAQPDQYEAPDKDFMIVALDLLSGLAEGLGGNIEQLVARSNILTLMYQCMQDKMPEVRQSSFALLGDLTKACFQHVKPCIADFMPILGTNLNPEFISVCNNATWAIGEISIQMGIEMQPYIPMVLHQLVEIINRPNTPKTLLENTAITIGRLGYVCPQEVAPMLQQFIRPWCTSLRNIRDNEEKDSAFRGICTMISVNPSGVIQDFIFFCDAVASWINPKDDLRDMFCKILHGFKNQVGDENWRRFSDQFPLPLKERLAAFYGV

T2: Trn1Δloop (HEAT repeat 8 loop replaced with the GGSGGSG linker) (human, UniProt Q92973 1-343; Q92973 376-898)
T2 chain: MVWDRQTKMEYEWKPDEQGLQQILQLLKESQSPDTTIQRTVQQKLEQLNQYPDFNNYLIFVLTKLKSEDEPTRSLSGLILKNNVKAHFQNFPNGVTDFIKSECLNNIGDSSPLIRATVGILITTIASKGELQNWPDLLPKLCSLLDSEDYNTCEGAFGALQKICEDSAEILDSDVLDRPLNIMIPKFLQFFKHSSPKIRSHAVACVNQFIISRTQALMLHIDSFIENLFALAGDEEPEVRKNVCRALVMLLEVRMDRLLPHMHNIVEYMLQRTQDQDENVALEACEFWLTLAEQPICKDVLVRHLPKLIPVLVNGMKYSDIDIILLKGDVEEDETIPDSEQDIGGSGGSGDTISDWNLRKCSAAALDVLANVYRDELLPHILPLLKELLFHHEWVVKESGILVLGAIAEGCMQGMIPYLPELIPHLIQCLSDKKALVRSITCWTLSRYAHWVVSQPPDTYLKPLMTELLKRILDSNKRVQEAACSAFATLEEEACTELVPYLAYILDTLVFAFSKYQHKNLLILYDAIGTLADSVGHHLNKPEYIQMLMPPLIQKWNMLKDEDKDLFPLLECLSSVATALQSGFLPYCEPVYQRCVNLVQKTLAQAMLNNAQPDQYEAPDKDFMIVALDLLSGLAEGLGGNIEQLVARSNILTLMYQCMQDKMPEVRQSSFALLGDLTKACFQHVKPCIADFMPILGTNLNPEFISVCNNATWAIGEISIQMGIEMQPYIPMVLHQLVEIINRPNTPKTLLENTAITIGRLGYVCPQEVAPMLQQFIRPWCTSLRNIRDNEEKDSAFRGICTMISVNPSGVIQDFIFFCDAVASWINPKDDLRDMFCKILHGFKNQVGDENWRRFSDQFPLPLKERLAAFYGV


Key:
[1] = target: T1, full-length Transportin-1 (Trn1), wild …; experiment: SEC-MALS
[2] = target: T2, Trn1Δloop (HEAT repeat 8 loop replaced …); experiment: SEC-MALS
[3] = target: T1, full-length Transportin-1 (Trn1), wild …; experiment: ITC

stoichiometry N [1]	stoichiometry N [2]	Kd [3]	Binder
1 molar ratio	1 molar ratio		PPARγ (DBD), residues 135-209, purified (domain or fragment, human, UniProt P37231-1 135-209, looked up) MAIECRVCGDKASGFHYGVHACEGCKGFFRRTIRLKLIYDRCDLNCRIHKKSRNKCQYCRFQKCLAVGMSHNAIR
1 molar ratio	1 molar ratio	0.2 µM	PPARγ (DHL), residues 102-505, purified (domain or fragment, human, UniProt P37231-1 102-505, looked up) YQSAIKVEPASPPYYSEKTQLYNKPHEEPSNSLMAIECRVCGDKASGFHYGVHACEGCKGFFRRTIRLKLIYDRCDLNCRIHKKSRNKCQYCRFQKCLAVGMSHNAIRFGRMPQAEKEKLLAEISSDIDQLNPESADLRALAKHLYDSYIKSFPLTKAKARAILTGKTTDKSPFVIYDMNSLMMGEDKIKFKHITPLQEQSKEVAIRIFQGCQFRSVEAVQEITEYAKSIPGFVNLDLNDQVTLLKYGVHEIIYTMLASLMNKDGVLISEGQGFMTREFLKSLRKPFGDFMEPKFEFAVKFNALELDDSDLAIFIAVIILSGDRPGLLNVKPIEDIQDNLLQALELQLKLNHPESSQLFAKLLQKMTDLRQIVTEHVQLLQVIKKTETDMSLHPLLQEIYKDLY
